Values joined by “and” are separate entries in the source; they are usually repeats but may differ in a detail not shown here. Equal values may be shown once. Blank lines part the entries; values can stand above or below the substance they belong to.
Tests used:
[1] = target: human Bri2 BRICHOS (residues 113–231) tagged C-terminally with AU1, secreted from HEK293 cells (human) (UniProt Q9Y287); experiment: immunoprecipitation and Western blot after non-reducing SDS-PAGE; culture medium of HEK293 cells transfected with Bri2 BRICHOS; reducing against non-reducing conditions
[2] = target: human Bri2 BRICHOS (residues 113–231) tagged C-terminally with AU1, secreted from HEK293 cells (human) (UniProt Q9Y287); experiment: Western blot after non-reducing SDS-PAGE; lysates of HEK293 cells transfected with Bri2 BRICHOS-AU1, anti-AU1 blot (Supplementary Fig. 9a)
[3] = target: His6-NT*-thrombin cleavage site-Bri2 BRICHOS fusion protein (human) (UniProt Q9Y287); experiment: SEC; Ni-NTA-purified NT*-Bri2 BRICHOS fusion protein resolved on Superdex columns (Supplementary Fig. 1)
[4] = target: recombinant human Bri2 BRICHOS domain (residues 113–231 of full-length human Bri2) (human) (UniProt Q9Y287); experiment: SEC; rh Bri2 BRICHOS cleaved from isolated fusion-protein monomers; Superdex 200 PG
[5] = target: recombinant human Bri2 BRICHOS domain (residues 113–231 of full-length human Bri2) (human) (UniProt Q9Y287); experiment: Western blot after non-reducing SDS-PAGE; rh Bri2 BRICHOS monomer (5 µM) incubated at 37 °C in 80% (v/v) mouse serum, samples at different time points, goat anti-Bri2 BRICHOS blot
[6] = target: recombinant human Bri2 BRICHOS domain (residues 113–231 of full-length human Bri2) (human) (UniProt Q9Y287); experiment: negative-stain TEM single-particle 3D reconstruction; oligomers isolated on Superose 6 GL in 20 mM ammonium acetate pH 8.0, 2% uranyl acetate stain, D2 symmetry applied; number of subunits from the volume of the map against that of a monomer model
[7] = target: recombinant human Bri2 BRICHOS domain (residues 113–231 of full-length human Bri2) (human) (UniProt Q9Y287); experiment: SDS-PAGE under non-reducing and reducing conditions; monomeric rh Bri2 BRICHOS (26.8 µM) incubated at 37 °C overnight in 20 mM phosphate pH 8.0, 0.2 mM EDTA, 0.02% NaN3
[8] = target: recombinant human Bri2 BRICHOS domain (residues 113–231 of full-length human Bri2) (human) (UniProt Q9Y287); experiment: SEC; rh Bri2 BRICHOS cleaved from isolated fusion-protein dimers; Superdex 200 PG

stoichiometry N [1]: 2 and 4
stoichiometry N [2]: 2 and 4
Substance: human Bri2 BRICHOS (residues 113–231) tagged C-terminally with AU1, secreted from HEK293 cells (from UniProt Q9Y287 113-231) (domain or fragment)

stoichiometry N [3]: 2
Substance: His6-NT*-thrombin cleavage site-Bri2 BRICHOS fusion protein (from UniProt Q9Y287 113-231) (domain or fragment)

stoichiometry N [4]: 2
stoichiometry N [5]: 2 and 4 and 6
stoichiometry N [6]: 24
stoichiometry N [7]: 2
stoichiometry N [8]: 2 and 4
Substance: recombinant human Bri2 BRICHOS domain (residues 113–231 of full-length human Bri2) (from UniProt Q9Y287 113-231) (domain or fragment)

Source: PMC5727130
